Data from patent publication US20140193378A1 (UNIVERSITY OF MIAMI, published 2014).
Non-standard residues stand in square brackets, D forms with d. No end group written: not given here. *: point of attachment. Desaminotyrosyl = O=C(CCc1ccc(O)cc1)*; NMeY = CN[C@@H](Cc1ccc(O)cc1)C(=O)O; hArg = N=C(N)NCCCC[C@H](N)C(=O)O; Nle = CCCC[C@H](N)C(=O)O; Orn = NCCC[C@H](N)C(=O)O; Abu = CC[C@H](N)C(=O)O; Aoc = NCCCCCCCC(=O)O; Ava = NCCCCC(=O)O

T1: human GHRH receptor (human pituitary membrane homogenates) (human) (UniProt Q02643)
T1 sequence (looked up): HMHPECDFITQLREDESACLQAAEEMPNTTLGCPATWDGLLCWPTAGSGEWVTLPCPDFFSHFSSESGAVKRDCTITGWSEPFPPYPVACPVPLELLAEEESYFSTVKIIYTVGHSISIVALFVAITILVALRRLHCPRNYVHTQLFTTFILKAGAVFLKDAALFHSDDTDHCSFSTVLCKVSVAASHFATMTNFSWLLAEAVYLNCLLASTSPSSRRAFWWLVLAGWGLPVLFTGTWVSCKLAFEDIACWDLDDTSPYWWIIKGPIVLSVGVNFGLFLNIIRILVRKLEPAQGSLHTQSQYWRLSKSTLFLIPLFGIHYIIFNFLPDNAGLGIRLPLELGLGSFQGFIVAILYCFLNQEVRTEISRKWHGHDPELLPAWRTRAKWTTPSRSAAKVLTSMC

T2: human GHRH receptor (human pituitary membrane homogenates) (human), Q02643
T2 chain: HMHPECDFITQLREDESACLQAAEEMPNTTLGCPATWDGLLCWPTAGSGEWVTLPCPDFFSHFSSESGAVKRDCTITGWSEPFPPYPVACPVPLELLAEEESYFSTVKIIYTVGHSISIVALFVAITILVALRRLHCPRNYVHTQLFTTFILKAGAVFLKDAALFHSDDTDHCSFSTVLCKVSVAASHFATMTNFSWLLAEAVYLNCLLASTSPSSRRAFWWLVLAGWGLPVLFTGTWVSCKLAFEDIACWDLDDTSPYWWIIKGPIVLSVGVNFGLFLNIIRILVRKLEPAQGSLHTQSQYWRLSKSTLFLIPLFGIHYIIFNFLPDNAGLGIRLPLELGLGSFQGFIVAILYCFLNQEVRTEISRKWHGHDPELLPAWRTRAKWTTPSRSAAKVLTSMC

T3: human GHRH receptor (human pituitary membrane homogenates) (human, UniProt Q02643 23-423)
T3 construct: whole, on cells; Native receptor in human pituitary membrane homogenates, not on intact cells; also called hGHRH receptor
T3 sequence (looked up): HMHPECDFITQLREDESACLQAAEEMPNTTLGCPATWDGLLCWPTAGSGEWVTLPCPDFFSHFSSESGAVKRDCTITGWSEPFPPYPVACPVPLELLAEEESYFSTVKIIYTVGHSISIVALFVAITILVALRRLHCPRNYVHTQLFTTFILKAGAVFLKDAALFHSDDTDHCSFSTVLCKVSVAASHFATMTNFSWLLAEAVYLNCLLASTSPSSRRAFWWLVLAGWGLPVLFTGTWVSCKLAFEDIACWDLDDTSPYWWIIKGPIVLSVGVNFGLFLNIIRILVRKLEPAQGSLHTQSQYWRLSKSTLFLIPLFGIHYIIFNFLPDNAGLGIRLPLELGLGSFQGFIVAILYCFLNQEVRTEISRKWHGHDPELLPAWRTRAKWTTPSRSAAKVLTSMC


Legend:
[1] = molecular target: T1, human GHRH receptor (human pituitary membrane homogenates) (human); test: radioligand competition vs 125I-JV-1-42 (0.2 nM), human pituitary membranes
[2] = molecular target: T2, human GHRH receptor (human pituitary …); test: as above
[3] = molecular target: T3, human GHRH receptor (human pituitary …); test: radioligand competition vs [His1,125I-Tyr10,Nle27]hGHRH(1-32)NH2 (0.2 nM), human pituitary membranes
Excerpt: Normal human pituitaries were purchased from the National Hormone and Peptide Program (A. F. Parlow, Los Angeles, County Harbor—UCLA Medical Center, Torrance, Calif.).

Binder | Relative affinity (Binding potency) vs GHRH [3] [fold] | Relative affinity (Binding potency) vs JI-38 [3] [fold] | further results
[Desaminotyrosyl]ADAIFTQSYR[Orn]VL[Abu]QLSAR[Orn]LLQDI[Nle]DR[Ava]-NH2 (peptide, from a related filing, SMILES CCCC[C@H](NC(=O)[C@@H](NC(=O)[C@H](CC(=O)O)NC(=O)[C@H](CCC(N)=O)NC(=O)[C@H](CC(C)C)NC(=O)[C@H](CC(C)C)NC(=O)[C@H](CCCN)NC(=O)[C@H](CCCNC(=N)N)NC(=O)[C@H](C)NC(=O)[C@H](CO)NC(=O)[C@H](CC(C)C)NC(=O)[C@H](CCC(N)=O)NC(=O)[C@H](CC)NC(=O)[C@H](CC(C)C)NC(=O)[C@@H](NC(=O)[C@H](CCCN)NC(=O)[C@H](CCCNC(=N)N)NC(=O)[C@H](Cc1ccc(O)cc1)NC(=O)[C@H](CO)NC(=O)[C@H](CCC(N)=O)NC(=O)[C@@H](NC(=O)[C@H](Cc1ccccc1)NC(=O)[C@@H](NC(=O)[C@H](C)NC(=O)[C@H](CC(=O)O)NC(=O)[C@H](C)NC(=O)CCc1ccc(O)cc1)[C@@H](C)CC)[C@@H](C)O)C(C)C)[C@@H](C)CC)C(=O)N[C@@H](CC(=O)O)C(=O)N[C@@H](CCCNC(=N)N)C(=O)NCCCCC(N)=O) [P-22327 [Dat^1, Gln^8, Orn^12, Abu^15, Orn^21, Nle^27, Asp^28, Apa^30]hGHRH(1-30)NH2] | – | – | Relative affinity (Binding potency) vs JI-38 [1]: 2.18 fold
[NMeY]ADAIFTQSYR[Orn]VL[Abu]QLSAR[Orn]LLQDI[Nle]DR[Ava]-NH2 (peptide, from a related filing) [P-22325 [N-Me-Tyr^1, Gln^8, Orn^12, Abu^15, Orn^21, Nle^27, Asp^28, Apa^30]hGHRH(1-30)NH2] | – | – | Relative affinity (Binding potency) vs JI-38 [1]: 1.14 fold
[Desaminotyrosyl]ADAIFTQSYH[Orn]VL[Abu]QLSAH[Orn]LLQDI[Nle]DR-NHMe (SMILES CCCC[C@H](NC(=O)[C@@H](NC(=O)[C@H](CC(=O)O)NC(=O)[C@H](CCC(N)=O)NC(=O)[C@H](CC(C)C)NC(=O)[C@H](CC(C)C)NC(=O)[C@H](CCCN)NC(=O)[C@H](Cc1c[nH]cn1)NC(=O)[C@H](C)NC(=O)[C@H](CO)NC(=O)[C@H](CC(C)C)NC(=O)[C@H](CCC(N)=O)NC(=O)[C@H](CC)NC(=O)[C@H](CC(C)C)NC(=O)[C@@H](NC(=O)[C@H](CCCN)NC(=O)[C@H](Cc1c[nH]cn1)NC(=O)[C@H](Cc1ccc(O)cc1)NC(=O)[C@H](CO)NC(=O)[C@H](CCC(N)=O)NC(=O)[C@@H](NC(=O)[C@H](Cc1ccccc1)NC(=O)[C@@H](NC(=O)[C@H](C)NC(=O)[C@H](CC(=O)O)NC(=O)[C@H](C)NC(=O)CCc1ccc(O)cc1)[C@@H](C)CC)[C@@H](C)O)C(C)C)[C@@H](C)CC)C(=O)N[C@@H](CC(=O)O)C(=O)N[C@@H](CCCNC(=N)N)C(=O)NC) [P-27413 [Dat^1, Gln^8, His^11, Orn^12, Abu^15, His^20, Orn^21, Nle^27, Asp^28]hGHRH(1-29)NH-CH3] | – | – | IC50 [2]: 2.45 nM; Relative affinity (Binding potency) vs JI-38 [2]: 1.78 fold
[Desaminotyrosyl][dA]DAIFTNSYR[Orn]VL[Abu]QLSAR[Orn]LLQDI[Nle]DR[hArg]-NH2 (SMILES CCCC[C@H](NC(=O)[C@@H](NC(=O)[C@H](CC(=O)O)NC(=O)[C@H](CCC(N)=O)NC(=O)[C@H](CC(C)C)NC(=O)[C@H](CC(C)C)NC(=O)[C@H](CCCN)NC(=O)[C@H](CCCNC(=N)N)NC(=O)[C@H](C)NC(=O)[C@H](CO)NC(=O)[C@H](CC(C)C)NC(=O)[C@H](CCC(N)=O)NC(=O)[C@H](CC)NC(=O)[C@H](CC(C)C)NC(=O)[C@@H](NC(=O)[C@H](CCCN)NC(=O)[C@H](CCCNC(=N)N)NC(=O)[C@H](Cc1ccc(O)cc1)NC(=O)[C@H](CO)NC(=O)[C@H](CC(N)=O)NC(=O)[C@@H](NC(=O)[C@H](Cc1ccccc1)NC(=O)[C@@H](NC(=O)[C@H](C)NC(=O)[C@H](CC(=O)O)NC(=O)[C@@H](C)NC(=O)CCc1ccc(O)cc1)[C@@H](C)CC)[C@@H](C)O)C(C)C)[C@@H](C)CC)C(=O)N[C@@H](CC(=O)O)C(=O)N[C@@H](CCCNC(=N)N)C(=O)N[C@@H](CCCCNC(=N)N)C(N)=O, also called Peptide 23252) [P-23252 [Dat^1-D-Ala^2, Orn^12, Abu^15, Orn^21, Nle^27, Asp^28, Har^30]hGHRH(1-30)NH2] | 42.3 | 13.9 | –
[Desaminotyrosyl][dA]DAIFTQSYR[Orn]VL[Abu]QLSAR[Orn]LLQDI[Nle]DR[Aoc]-NH2 (SMILES CCCC[C@H](NC(=O)[C@@H](NC(=O)[C@H](CC(=O)O)NC(=O)[C@H](CCC(N)=O)NC(=O)[C@H](CC(C)C)NC(=O)[C@H](CC(C)C)NC(=O)[C@H](CCCN)NC(=O)[C@H](CCCNC(=N)N)NC(=O)[C@H](C)NC(=O)[C@H](CO)NC(=O)[C@H](CC(C)C)NC(=O)[C@H](CCC(N)=O)NC(=O)[C@H](CC)NC(=O)[C@H](CC(C)C)NC(=O)[C@@H](NC(=O)[C@H](CCCN)NC(=O)[C@H](CCCNC(=N)N)NC(=O)[C@H](Cc1ccc(O)cc1)NC(=O)[C@H](CO)NC(=O)[C@H](CCC(N)=O)NC(=O)[C@@H](NC(=O)[C@H](Cc1ccccc1)NC(=O)[C@@H](NC(=O)[C@H](C)NC(=O)[C@H](CC(=O)O)NC(=O)[C@@H](C)NC(=O)CCc1ccc(O)cc1)[C@@H](C)CC)[C@@H](C)O)C(C)C)[C@@H](C)CC)C(=O)N[C@@H](CC(=O)O)C(=O)N[C@@H](CCCNC(=N)N)C(=O)NCCCCCCCC(N)=O, also called Peptide 21304) [P-21304 [Dat^1, D-Ala^2, Gln^8, Orn^12, Abu^15, Orn^21, Nle^27, Asp^28, Amc^30]hGHRH(1-30)NH2] | 74 | 24.4 | –
[Desaminotyrosyl][dA]DAIFTTSYR[Orn]VL[Abu]QLSAR[Orn]LLQDI[Nle]DR[hArg]-NH2 (SMILES CCCC[C@H](NC(=O)[C@@H](NC(=O)[C@H](CC(=O)O)NC(=O)[C@H](CCC(N)=O)NC(=O)[C@H](CC(C)C)NC(=O)[C@H](CC(C)C)NC(=O)[C@H](CCCN)NC(=O)[C@H](CCCNC(=N)N)NC(=O)[C@H](C)NC(=O)[C@H](CO)NC(=O)[C@H](CC(C)C)NC(=O)[C@H](CCC(N)=O)NC(=O)[C@H](CC)NC(=O)[C@H](CC(C)C)NC(=O)[C@@H](NC(=O)[C@H](CCCN)NC(=O)[C@H](CCCNC(=N)N)NC(=O)[C@H](Cc1ccc(O)cc1)NC(=O)[C@H](CO)NC(=O)[C@@H](NC(=O)[C@@H](NC(=O)[C@H](Cc1ccccc1)NC(=O)[C@@H](NC(=O)[C@H](C)NC(=O)[C@H](CC(=O)O)NC(=O)[C@@H](C)NC(=O)CCc1ccc(O)cc1)[C@@H](C)CC)[C@@H](C)O)[C@@H](C)O)C(C)C)[C@@H](C)CC)C(=O)N[C@@H](CC(=O)O)C(=O)N[C@@H](CCCNC(=N)N)C(=O)N[C@@H](CCCCNC(=N)N)C(N)=O, also called Peptide 23254) [P-23254 [Dat^1, D-Ala^2, Thr^8, Orn^12, Abu^15, Orn^21, Nle^27, Asp^28, Har^30]hGHRH(1-30)NH2] | 84.5 | 27.8 | –
[Desaminotyrosyl][dA]DAIFTASYR[Orn]VL[Abu]QLSAR[Orn]LLQDI[Nle]DR[hArg]-NH2 (SMILES CCCC[C@H](NC(=O)[C@@H](NC(=O)[C@H](CC(=O)O)NC(=O)[C@H](CCC(N)=O)NC(=O)[C@H](CC(C)C)NC(=O)[C@H](CC(C)C)NC(=O)[C@H](CCCN)NC(=O)[C@H](CCCNC(=N)N)NC(=O)[C@H](C)NC(=O)[C@H](CO)NC(=O)[C@H](CC(C)C)NC(=O)[C@H](CCC(N)=O)NC(=O)[C@H](CC)NC(=O)[C@H](CC(C)C)NC(=O)[C@@H](NC(=O)[C@H](CCCN)NC(=O)[C@H](CCCNC(=N)N)NC(=O)[C@H](Cc1ccc(O)cc1)NC(=O)[C@H](CO)NC(=O)[C@H](C)NC(=O)[C@@H](NC(=O)[C@H](Cc1ccccc1)NC(=O)[C@@H](NC(=O)[C@H](C)NC(=O)[C@H](CC(=O)O)NC(=O)[C@@H](C)NC(=O)CCc1ccc(O)cc1)[C@@H](C)CC)[C@@H](C)O)C(C)C)[C@@H](C)CC)C(=O)N[C@@H](CC(=O)O)C(=O)N[C@@H](CCCNC(=N)N)C(=O)N[C@@H](CCCCNC(=N)N)C(N)=O, also called Peptide 23256) [P-23256 [Dat^1, D-Ala^2, Ala^8, Orn^12, Abu^15, Orn^21, Nle^27, Asp^28, Har^30]hGHRH(1-30)NH2] | 148 | 48.7 | –
